# In patent US20170314054A1 (ROCHE SEQUENCING SOLUTIONS, published 2017):
# No end group written: not given here.
# T1: microbial transglutaminase from Streptomyces mobaraensis (MTG) (Streptomyces mobaraensis, UniProt P81453 77-407)
# T1 sequence (looked up): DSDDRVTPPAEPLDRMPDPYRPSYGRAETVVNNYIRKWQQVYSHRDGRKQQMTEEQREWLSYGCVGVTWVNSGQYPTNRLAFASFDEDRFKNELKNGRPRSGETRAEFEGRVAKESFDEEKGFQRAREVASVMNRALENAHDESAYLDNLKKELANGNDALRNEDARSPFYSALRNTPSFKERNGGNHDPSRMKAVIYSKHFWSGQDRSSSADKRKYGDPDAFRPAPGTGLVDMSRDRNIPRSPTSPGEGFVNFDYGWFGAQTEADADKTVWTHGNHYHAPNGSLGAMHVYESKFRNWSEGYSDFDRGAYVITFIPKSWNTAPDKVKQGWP
# Target: T1, microbial transglutaminase from …
# Assay: cell-based or functional assay
row,Binder,"Log2(signal), array MTG labeling with N-(Biotinyl)cadaverine"
1,EFVAQ (also: flanked by G:S (3:1) linkers on peptide array) [EFVAQ (SEQ ID NO: 21)],15.2 Log2(signal)
2,PYVLQ (also: flanked by G:S (3:1) linkers on peptide array) [PYVLQ (SEQ ID NO: 16)],15.3 Log2(signal)
3,EYFLQ (also: flanked by G:S (3:1) linkers on peptide array) [EYFLQ (SEQ ID NO: 24)],15.2 Log2(signal)
4,EYVAQ (also: flanked by G:S (3:1) linkers on peptide array) [EYVAQ (SEQ ID NO: 13)],15.3 Log2(signal)
5,RYALQ (not fully specified) [RYALQ (SEQ ID NO: 14)],15.3 Log2(signal)
6,EYVLQ (not fully specified; also: flanked by G:S (3:1) linkers on peptide array) [EYVLQ (SEQ ID NO: 6)],15.4 Log2(signal)
7,DFYLQ [DFYLQ (SEQ ID NO: 22)],15.2 Log2(signal)
8,DYALQ [DYALQ (SEQ ID NO: 1)],15.5 Log2(signal)
9,YFALQ (not fully specified) [YFALQ (SEQ ID NO: 15)],15.3 Log2(signal)
10,DYTLQ [DYTLQ (SEQ ID NO: 11)],15.3 Log2(signal)
11,DYVLQ (also: flanked by G:S (3:1) linkers on peptide array) [DYVLQ (SEQ ID NO: 2)],15.5 Log2(signal)
12,PYALQ (also: flanked by G:S (3:1) linkers on peptide array) [PYALQ (SEQ ID NO: 5)],15.4 Log2(signal)
13,NYVLQ (also: flanked by G:S (3:1) linkers on peptide array) [NYVLQ (SEQ ID NO: 12)],15.3 Log2(signal)
14,NFVLQ (not fully specified; also: flanked by G:S (3:1) linkers on peptide array) [NFVLQ (SEQ ID NO: 25)],15.2 Log2(signal)
15,NYFLQ (also: flanked by G:S (3:1) linkers on peptide array) [NYFLQ (SEQ ID NO: 9)],15.4 Log2(signal)
16,DYFLQ [DYFLQ (SEQ ID NO: 8)],15.4 Log2(signal)
17,FYALQ (also: flanked by G:S (3:1) linkers on peptide array) [FYALQ (SEQ ID NO: 10)],15.4 Log2(signal)
18,DFALQ [DFALQ (SEQ ID NO: 7)],15.4 Log2(signal)
19,WYALQ (not fully specified) [WYALQ (SEQ ID NO: 17)],15.3 Log2(signal)
20,NYALQ (also: flanked by G:S (3:1) linkers on peptide array) [NYALQ (SEQ ID NO: 3)],15.5 Log2(signal)
21,DYVAQ [DYVAQ (SEQ ID NO: 20)],15.2 Log2(signal)
22,EFALQ (also: flanked by G:S (3:1) linkers on peptide array) [EFALQ (SEQ ID NO: 23)],15.2 Log2(signal)
23,SYALQ (not fully specified) [SYALQ (SEQ ID NO: 18)],15.2 Log2(signal)
24,EYALQ (also: flanked by G:S (3:1) linkers on peptide array) [EYALQ (SEQ ID NO: 4)],15.5 Log2(signal)
25,HYALQ (also: flanked by G:S (3:1) linkers on peptide array) [HYALQ (SEQ ID NO: 19)],15.2 Log2(signal)

# Target: T1, microbial transglutaminase from …
# Assay: cell-based or functional assay
# Remark: another data set of the same source
row,Binder,A (array MTG labeling signal with Z-Gln-Gly-CAD-biotin)
1,RSKLA (not fully specified) [RSKLA (SEQ ID NO: 68)],13.3
2,KLSKL (also: flanked by G:S (3:1) linkers on peptide array) [KLSKL (SEQ ID NO: 57)],13.4
3,TKSKL (not fully specified) [TKSKL (SEQ ID NO: 56)],13.4
4,GRSKL (also: flanked by G:S (3:1) linkers on peptide array) [GRSKL (SEQ ID NO: 69)],13.3
5,SKLSK (not fully specified) [SKLSK (SEQ ID NO: 71)],13.3
6,RSKLG (not fully specified) [RSKLG (SEQ ID NO: 58)],13.4
7,PKTKL (also: flanked by G:S (3:1) linkers on peptide array) [PKTKL (SEQ ID NO: 66)],13.3
8,NRTKL (also: flanked by G:S (3:1) linkers on peptide array) [NRTKL (SEQ ID NO: 76)],13.3
9,RAKYK (also: flanked by G:S (3:1) linkers on peptide array) [RAKYK (SEQ ID NO: 70)],13.3
10,RGSKL (also: flanked by G:S (3:1) linkers on peptide array) [RGSKL (SEQ ID NO: 59)],13.4
11,FPKLK (also: flanked by G:S (3:1) linkers on peptide array) [FPKLK (SEQ ID NO: 61)],13.4
12,RSKSK (not fully specified) [RSKSK (SEQ ID NO: 62)],13.4
13,FTKSK (also: flanked by G:S (3:1) linkers on peptide array) [FTKSK (SEQ ID NO: 64)],13.4
14,RGTKL (also: flanked by G:S (3:1) linkers on peptide array) [RGTKL (SEQ ID NO: 60)],13.4
15,KLKYK (also: flanked by G:S (3:1) linkers on peptide array) [KLKYK (SEQ ID NO: 65)],13.4
16,LSKLK (also: flanked by G:S (3:1) linkers on peptide array) [LSKLK (SEQ ID NO: 75)],13.3
17,QRSKL (also: flanked by G:S (3:1) linkers on peptide array) [QRSKL (SEQ ID NO: 73)],13.3
18,KSKLA (also: flanked by G:S (3:1) linkers on peptide array) [KSKLA (SEQ ID NO: 55)],13.4
19,ARSKL [ARSKL (SEQ ID NO: 54)],13.4
20,RLKSK (also: flanked by G:S (3:1) linkers on peptide array) [RLKSK (SEQ ID NO: 67)],13.3
21,SKSKL (not fully specified) [SKSKL (SEQ ID NO: 63)],13.4
22,KTKYK (also: flanked by G:S (3:1) linkers on peptide array) [KTKYK (SEQ ID NO: 74)],13.3
23,KLGAK (also: flanked by G:S (3:1) linkers on peptide array) [KLGAK (SEQ ID NO: 72)],13.3
